Measurements as given in publication PMC7116788 (Nature microbiology, 2021).
Read-outs that look alike come from different tables or passages of the source.

Columns and labels:
cryo-EM structure [1] = molecular target: the molecule itself; assay: cryo-EM structure
cryo-EM structure [2] = molecular target: the molecule itself; assay: cryo-EM structure; remark: listed apart in the source

B1: GldL (Flavobacterium johnsoniae) (natural protein)
chain: MALLSKKVMNFAYGMGAAVVIVGALFKITHFEIGPLTGTVMLSIGLLTEALIFALSAFEPVEDELDWTLVYPELANGQARKKEAKAETATDAQGLLSQKLDAMLKEAKVDGELMASLGNSIKNFEGAAKAISPTVDSIAGQKKYAEEMSMAAAQMESLNSLYKVQLESASRNAQANSEIAENAAKLKEQMASMTANIASLNSVYGGMLSAMSNKG
stoichiometry N (cryo-EM structure [1]): 5

B2: PorL (Porphyromonas gingivalis ATCC 33277) (natural protein, UniProt B2RLE9 1-309, looked up)
chain: MGHYRRYKNILEMYLASHKGRRLLNIVYSWGAAVVILGALFKLLHLPMGNEMLFVGMITEFLVFFISGFEKPAMEYHWEEVFPELDSKNPMDRREMEQRREYLREKAKEAAAYAERPSSVRLASASLGTQPQEQPKPATPFQSQLTGILPEEQIQRLSEGIDKLAEAGEQLARIGRTAAAMTESYEQMQADQEGLRLNSQSYIQQMESLSRNISGLNTIYEIQLKGISSQIDTIDRINRGLAHIRDMYDNSVIDSSSFRNENERMARQLTQLNEVYARLLQALTTNVGLPGMPGNFGASNPSSSGSSPL
binding result (cryo-EM structure [2]): binds

B3: PorM (Porphyromonas gingivalis ATCC 33277) (natural protein, UniProt B2RLE8 1-516, looked up)
chain: MAVGSNGNANRQKMINLMYLVFIAMMALNVSSEVLDGFDKVDKSLTSSIDGSDKRNNLVLSELNTAYRTNPEKVKVWYERSLVLQKEADSLCTFIDDLKLAIARESDGKDAKVNDIRRKDNLDASSVVMLNPINGKGSTLRKEVDKFRELVATLMTDKAKLKLIEQALNTESGTKGKSWESSLFENMPTVAAITLLTKLQSDVRYAQGEVLADLVKSVDVGDYRVNSITAQVIPQSQIVMSGDTYKANIVLSSVDTTQRPDVFVNGKLLSPENMGLFTATAGAPGTYPVKGYIEMMGNDGVKIRRDFESEYFVTEPMASVAPTMMNVLYAGIDNPINIAVPGVAQQNVSATINNGTLTRRGNLWIARPTKVGSEAIISVTAQSGGRTIQMAKTTLRVRALPDPLPYIEYKDVQGNTKRFKGGRLGKREILAAGGIKAALDDDLLEVNYTVVKFQLVFYDSMGNSIPEVSDGASFSERQKRQIQNLGKGKRFYVTEVIARGPDGIERKIPAIEVIVN
stoichiometry N (cryo-EM structure [2]): 2
